{"source": "paper PMC7459334", "about": "“Akkermansia muciniphila uses human milk oligosaccharides to thrive in the early life conditions in vitro” (Scientific Reports, 2020)", "proteins": {"B1": {"name": "Amuc_0369 (Akkermansia muciniphila ATCC BAA-835) (protein)", "chain": "QEQIIPKPAEITLFTGSPARLTPDSLIITETQDKAFLDQAGQLQQMLSAGTGLPLPLKPAGQASKKAACIVIKKDPALAARGEEAYSIQSSPSGIILSAADARGIFYAGQSLVQMMPSVFHDRTGDKSAVRWNISETPFRITDYPRFSWRALMIDEARHFFGEKTIKQIIDQMALLKMNILHWHLTDDTGWRIEIKKYPRLTSIGSKRRESEIGTWNSGKSDGTPHEGFYTQEQIRDIVQYAARRNITIVPEIEMPGHASAAAVAYPFLSLKTPGEVPTTFIVNTAFDPTSEKTYAFLSDVLDEVTAIFPGRIIHIGGDEVRYDKQWKGVPEIEEFMKKNGMKSYADVQMHFTNRMSGIIAQKGRRMMGWNEIYGHDVNGDGGGKAGAKLDTNAVIQFWKGNTSLAKNAIRDGHDVINSLHTSTYLDYSYGSIPLQKAYGFEPVFPGLEKQYHSRVKGLGAQVWTEWISTPERLHYQAFPRACAFAEVGWTPAGKKDFPDFKKRLKAYSERMDLMGIKFARNVISQIDKSDFFNTPRIGTWTPATLTREEHSFDVTKLVKASGKHTVTLLYDKGAHAIEIESVALYENSREVSRDAHAGRSGAHKENIQYILNAPAPRQGATYTVKANFKGAGGRDSHGTVYFETP"}, "B2": {"name": "Amuc_1686 (Akkermansia muciniphila ATCC BAA-835) (protein)", "chain": "AAPMPLPESNDGARHVFSTNQENFLMDGKPVKIISGEMHYPRVPRQHWKDRFQRIKAMGMNTVCTYLFWNVHEPEPGKWDFSGNLDFVEFIKEAQKAGLWVIVRPGPYVCAEWEFGGFPGWLLKDEDLKVRSQDPRFLEPAMAYLKKVCSMLEPLQITKGGPIIMAQVENEYGSYGSDKDYVKKHLDVIRKELPGVVPFTSDGPNDWMIKNGTLPGVVPAMNFGGGAKGAFANLEKHKGKTPRINGEFWVGWFDHWGKPKNGGSTEGFNRDLKWMLENNVSPNLFMAHGGTSFGFMNGANWEGAYTPDVTNYDYGAPISENGTLTDRYRTFRQTIQDYYGDTYKLPEPPAQPEMMELPPITFTETAGMFSRLPQPVIRKEPVHMEALGQSLGFILYRTKVNGPVKGELKMNNMQDRAIVYVDGKRQGAADRRYKQDSCDIVIPSGLHTVDIFVENMGRINFGGQIQGERKGIRGPITLDGKKLENFLIYNFPCKGVELIPFSGKKPAGDQPVFHRGYFNVSNPKDTYLDMRDGWKKGVVWVNGRNLGRFWFIGSQQALYCPGEYLKPGKNEIVVLDVDGGSGTVKGVKEAIYEVNRDPAMADVFRVGKPVAPAAGQLVHKGSFAKGADQQEIKFRAPVQARYIAIVSKNAHDNGPHAAIAELNFLDASGNLLPREQWSVVYADSHETTGEAAQAGLVMDNQPTTYWHTKWQGDNPRHPHMIVLDLGKVQKLSGFRYLPRQDRENGRIKDYEVYASPKPFKPAK"}, "B3": {"name": "Amuc_0771 (Akkermansia muciniphila ATCC BAA-835) (protein)", "chain": "GPEAVQNVQKPALSGGPPVVFGFGGEGNQEFMLNGKPFQIRGAEMHPQRIPREYWRHRIRTAKAMGLNTIAFYVFWNDHEQPDGSFDFKTGNRDLEGFLKLCQEEGMWVLFRPGPYACGEWDLGGLPHYLLKDPKAKLRTTEDAKFMKAQTRYLEAVARVAEPFLAKNGGPILMTQLENEYGSYQRKDRKYMEWLKAFWSRKGFGPFYTSDGAGEHFLKGVVLPGVAVGLDPGLNDGHWAVANKCNPGVPVFSSETYPGWLRHWGEGNWAPTPGVVNHVRWFMDKGRSFSLFVFHGGTNFGFSAGANNGGPGKYQPDLTSYDYGSPVDEQGRMNEYYAQMREIILKKLPPEAAVPEPPADIPAMEIPEFTPAVHAGLWENLPKPFRSKFPQPPYFEQWNQNQGIAVYRTAVPSGPPETLEFTNVNDYAQVYLDGELVGTLDRRLGQKSVKLPERRKPGTLEVLVEAMGHINFHISMESDRKGIYGPVKLGTRELKNWTVRALPLKADSIVRAPKGKGPSQKREGAHFRAVVNIEEPQDTFLDMSRYVKGYVWVNGINVGRYWNVGPQLRLYVPAPFLKKGENVIDILDLHEKEPKPVRGMKERNKEPGKINTKNLDNQW"}, "B4": {"name": "Amuc_2136 (Akkermansia muciniphila ATCC BAA-835) (protein)", "chain": "QDAKQIADSLSIPPVKAGAKQLPMPSVSGAQIKLLGADYEQLVNSKGKIAPVISDTPVNVSFKVTKDGKEAVSKDYEIMLQAPQAAQGNPKPRIIPEILQWKGGQGEYKLGNTVTIACPDKELGKLFAADMEDVLGKKVKLVAPGAKADISLSLLKGGNLGREGYRLQIARDGVRLGAAAPTGLFWGTRTLLQMLRQTPGSVPCGTAVDFPRYQLRGFMLDVARTPYPLSYLKDVIRTMAWYKMNDLHLVINNNYIFHEHYVDNGHDPFKESYAAFRLESKMKGKDGTPLTARDLFYTKKEFADLVSYARKYGVNIVPEFDTPGHALSFTRLRPDLIYKGPMNHEKRRCEMLDAANPETIDLVSKVFDEYMLKDPKLGRPVFADCGVVHVGADEFYGDKEDYRHFANAVLTHALKRGYTPRIWGSLSAKPGKTPVVSKGVQMNLWSTGWMKAWEAVNQGYDVINTNDGALYIVPFAGYYRMDRNHKGLYNNWIPNRIGNETLPSGHPQLLGGTFAVWNDETDIMHTGYAPYDIWGIISGSMDVLSQKLWGTAKAPDTFEQHRELVSSIGNAPRTNPLHKWKDSQPLTVKPSSLPQKLDKPALGPNYRLTMELELTAAPEGKEQVLLAAPEGELLAVMKDGTVGFRRDDSLEFSFGAKLPVGKKVKVEIVGEPEKTSLLLDGEPAGTAVLKNFSDKSKDFSDKFKHRPKVHRSTFILPLKELGSSFQGKVFHMNVQPL"}, "B5": {"name": "Amuc_0010 (Akkermansia muciniphila ATCC BAA-835) (protein)", "chain": "QQSATKIITENGQPALALDEQFAARLRDGGMKQGSPATVPAEFSAAAPGLPLPADANHAAVRETAGERNRRMEWWRDAKFGMFIHYGLYSGLAGEWKGRPGGSEWIQKNVEVDTDTYAAEALPLFKPREGLTEEWAQLARDAGCQYVVLTSKHHEGFGLFDSALTDYDAKSAVNRDIIREYVDSCRKRGLKVGLYHSVIDWHHPSYDNTICPDLCYPAGQAAMLNRKNIPRDHAAYQKYLHAQVRELMTRYAPIDIMWWDYSQGAMEGAKGWKAPELMDMVRSINPGVIMNNRLYAYSGLNKNQAGTLDLRCGDYITPERFIPRRGYPGVDWESCMTVSDKWGYNRYDTNIKSPETIIEKLVECVTKGGNLLLNVNPMADGTIPEKVAATMRGVGRWLNINGEAVYGTRAFMQLDQPATINRQGDIFIFLIPPPDKEPAQPPSEGTMKELTAGAEHARMQPLDATGYENDGGTAVTLPAGYSKALLLGDNTALPVVNGTVLFKAHEHSKTPCSVIKLSK"}}, "experiment_in_all_cases": "purified protein", "key": {"purified protein [1]": {"substrate": "CC(=O)N[C@H]1[C@H](Oc2ccc([N+](=O)[O-])cc2)O[C@H](CO)[C@@H](O)[C@@H]1O", "format": "biochemical, Akkermansia muciniphila", "conditions": "McIlvaine buffer"}, "purified protein [2]": {"substrate": "O=[N+]([O-])c1ccc(O[C@@H]2O[C@H](CO)[C@H](O)[C@H](O)[C@H]2O)cc1", "conditions": "McIlvaine buffer, pH 5.0, 37 °C"}, "purified protein [3]": {"substrate": "C[C@@H]1O[C@@H](Oc2ccc([N+](=O)[O-])cc2)[C@@H](O)[C@H](O)[C@@H]1O", "format": "biochemical, Akkermansia muciniphila", "conditions": "McIlvaine buffer, pH 5.6, 37 °C, text b19 prints 839 ± 46.72"}, "[4]": {"conditions": "pH 5.6, 37 °C, text b19 prints 322.37 ± 43.64"}}, "data": [{"protein": "B1", "values": [{"measurement": "Km", "setting": "purified protein [1]; [4]", "result": "323.38 ± 43.64", "unit": "µM"}, {"measurement": "Vmax", "setting": "purified protein [1]; [4]", "result": 55.6, "unit": "µM/min"}, {"measurement": "kcat", "setting": "purified protein [1]; [4]", "result": 670, "unit": "s⁻¹"}, {"measurement": "kcat/Km", "setting": "purified protein [1]; [4]", "result": "2.07e+06", "unit": "M⁻¹ s⁻¹"}]}, {"protein": "B2", "values": [{"measurement": "Km", "setting": "purified protein [2]", "result": "319.40 ± 259.30", "unit": "µM"}, {"measurement": "Vmax", "setting": "purified protein [2]", "result": 29.3, "unit": "µM/min"}, {"measurement": "kcat", "setting": "purified protein [2]", "result": 27.2, "unit": "s⁻¹"}, {"measurement": "kcat/Km", "setting": "purified protein [2]", "result": 70200, "unit": "M⁻¹ s⁻¹"}]}, {"protein": "B3", "values": [{"measurement": "Km", "setting": "purified protein [2]", "result": "2,599 ± 565.27 μM"}, {"measurement": "Vmax", "setting": "purified protein [2]", "result": 60.1, "unit": "µM/min"}, {"measurement": "kcat", "setting": "purified protein [2]", "result": 13.8, "unit": "s⁻¹"}, {"measurement": "kcat/Km", "setting": "purified protein [2]", "result": 5670, "unit": "M⁻¹ s⁻¹"}]}, {"protein": "B4", "values": [{"measurement": "Km", "setting": "purified protein [1]; pH 5.0, 37 °C", "result": "714.55 ± 47.96", "unit": "µM"}, {"measurement": "Vmax", "setting": "purified protein [1]; pH 5.0, 37 °C", "result": 109, "unit": "µM/min"}, {"measurement": "kcat", "setting": "purified protein [1]; pH 5.0, 37 °C", "result": 1490, "unit": "s⁻¹"}, {"measurement": "kcat/Km", "setting": "purified protein [1]; pH 5.0, 37 °C", "result": "2.08e+06", "unit": "M⁻¹ s⁻¹"}]}, {"protein": "B5", "values": [{"measurement": "Km", "setting": "purified protein [3]", "result": "841.23 ± 46.72", "unit": "µM"}, {"measurement": "Vmax", "setting": "purified protein [3]", "result": 19.8, "unit": "µM/min"}, {"measurement": "kcat", "setting": "purified protein [3]", "result": 378, "unit": "s⁻¹"}, {"measurement": "kcat/Km", "setting": "purified protein [3]", "result": 451000, "unit": "M⁻¹ s⁻¹"}]}]}
